Positions count from the first letter of the chain named.
B1: NMC-103: mouse monoclonal antibody of the IgG1 isotype that binds to NMC-P1 (SEQ ID NO:1); VH SEQ ID NO:36, VL SEQ ID NO:37 (antibody, V domains shown)
VH: EVQLQESGGGLVQPGGSLRLSCTTSGFTFTHYYMSWVRQPPGKALEWLGFIRNKAKGYTAEYSASVKGRFTISRDNSQSILYLQMNTLRPEDSATYYCARDIGDNWGQGTLVTVSS
VL: DIVMTQAAFSNPVTLGTSASISCRSSKNLLHSNGITYLYWYLQRPGQSPQLLISRVSNLASGVPNRFSGSESGTDFTLRISRVEAEDVGVYFCAQLLELPYTFGGGTKLEIK
modifications: mAb NMC-103 Heavy Chain Variable Region; mAb NMC-103 Light Chain Variable Region
B2: NMC-H103 (VH4/VK3): humanized NMC-103 variant, human IgG1, VH4 (SEQ ID NO:299) and VK3 (SEQ ID NO:297) (antibody, V domains shown)
VH: B1 VH with Q5V, G16P, P40A, A44G, Q78K, I80T, T87S, P90A, S93T, T95V
VL: B1 VL with A7T, A8P, F9L, N11S, T17Q, S18P, R44K, N65D, R79K, L109V
modifications: human IgG1 constant regions lacking entries; mAb NMC-H103.VH4Heavy Chain Variable Region; mAb NMC-H103.VK3Light Chain Variable Region

Assays:
[1] = test system: human pancreatic cancer MIAPaCa-2 cells; assay: Complement-dependent cytotoxicity with normal human serum (PI staining); format: cell-based; conditions: antibody 30 μg/ml, NHS 1:10, 2 hours
Protocol: Methodology used: Cells seeded in 24-well dishes were grown overnight at 37° C. in a humidified atmosphere supplied with 5% CO2-95% air mixture. The following day the cells were thoroughly washed with ice-cold PBS and incubated with HDM2-specific mAb NMC-103 diluted in culture medium containing 1% BSA to a final antibody concentration of 30 μg/ml. After 30 min, NHS was added to the cells at a final concentration of 1:10 in the culture medium with 1% BSA together with 1% propidium iodide (PI) solution. Cells were then incubated with NHS for 2 hours and images were taken using EVOS FL fluorescent microscope (Life Technologies).
Methodology used: Cells seeded in 24-well dishes were grown over night at 37° C. in a humidified atmosphere supplied with 5% CO2-95% air mixture. The following day the cells were thoroughly washed with ice-cold PBS and incubated with various HDM2-specific antibodies (i.e., OP145, N-20 and C-18 antibodies; see description of the antibodies in Table 10) or control antibodies (directed to the intra-cellular protein Cytochrome C) diluted in culture medium containing 1% BSA to a final antibody concentration of 5-10 ug/ml. After 30 min, NHS was added to the cells to make a final concentration of at 1:30 in the culture medium with 1% BSA together with 1% propidium iodide (PI) solution. […]

[2] = test system: HeLa cervical cancer cells; assay: Cell-ELISA on intact cells; format: cell-based, human; conditions: mAb 5 μg/mL
Protocol: In a 96-well microplate, 15,000 cells/well were cultured overnight. The next day, unbound cells were washed off with sterile 1×PBS. The cells in each well were fixed with freshly prepared 4% buffered paraformaldehyde (pH 7.2) for 1 hour, followed by 3 washes with 1×PBS. The wells were then blocked with 5% BSA in PBS (100 μl/well) for 2 hours at room temperature. Microplate wells were then washed 5 times with 300 μl of ice cold 1×PBS. Monoclonal antibodies NMC-H103 (VH4/VK3) or NMC-C303 at 5 μg/mL in 1% BSA/PBS were then incubated with various cancer cells for 2 hours at room temperature. Wells were then washed with 300 μl of ice-cold 1×PBS for 5 times and corresponding secondary antibody HRP-GaH F(ab′)2 diluted 1:2000 or 1:4000 in PBS with 1% BSA were added at 100 μl/well for 1 hour at room temperature followed by washing 5 times with 300 μl of ice-cold 1×PBS. TMB Substrate Solution (1-Step™ Ultra TMB-ELISA, ThermoFisher, Cat. No. 34028) was then added at 50 μL to each microplate well and incubated at room temperature for 30 minutes. The reaction was stopped by addition of 50 μL of stop solution (ThermoFisher, Cat. No. SS04) to each well and absorbance of each well was measured at OD450 nm. The absorbance value of each experimental well was corrected for the absorbance value obtained from wells treated with isotype-identical mAbs included in each experiment.

| Molecule | complement-mediated cytotoxicity (PI uptake) [1] | binding to intact, un-permeabilized cells, cell-based ELISA [2] |
| --- | --- | --- |
| B1 | triggered complement-mediated cytotoxicity |  |
| B2 |  | binding |

Reference: patent US20220098328A1, “ANTIBODIES TO M(H)DM2/4 AND THEIR USE IN DIAGNOSING AND TREATING CANCER” (NomoCan Pharmaceuticals LLC, priority 2017, published 2022)
